Source: the supplement of paper PMC10126150
± gives the standard deviation of the averaged measurements.

System: ATP
Assay: switch fluorescence ratio, 500 uM ATP over buffer (Cy3 cluster intensity, sum of 5 cycles each) (fold (ratio)); higher = stronger signal-on switching upon ATP binding; sequences stand for … in TCGTCGGCAGCGTCAGATGTGTATAAGAGACAGTTTTTTTTTTTTTTTTTTTTTTTTT…TC
Conditions: aptamer strand: ATP DNA aptamer (quencher-CACCTGGGGGAGTATTGCGGAGGAAGG + anchor), 100 nM annealed; ATP concentration: 500 uM
Summary of the method: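 Clusters with intensities outside 100-1000 RFU were excluded. The remaining Cy3-labelled switching-strand clusters on a modified Illumina MiSeq flow-cell had been annealed to 100 nM quencher-labelled ATP aptamer and imaged in selection buffer, then after 15 min with 500 uM ATP at 22 °C, for five cycles separated by NaOH stripping and re-annealing. The fluorescence ratio, averaged per switch-domain sequence, is each cluster's summed target-cycle Cy3 intensity over its summed buffer-cycle Cy3 intensity.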
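Note: ATP exposure 15 min at 22 °C before imaging.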

GGGGGTGGAG and CTGGGTATTC are within error of each other in switch fluorescence ratio: 1 ± 0.041 for the first, 1.03 ± 0.032 for the second.

AAATGCTCGG and TTTGCAGAAT are within error of each other in switch fluorescence ratio: 0.993 ± 0.03 for the first, 1.006 ± 0.0094 for the second.

First: TTGAAGTTAC
Second: TGTTGTAATG
The switch fluorescence ratio of the first is higher: 1.111 ± 0.0072 for the first, 0.9974 ± 0.0033 for the second.

GCCATCGAAT and TTTATCTTGG are within error of each other in switch fluorescence ratio: 1 ± 0.021 for the first, 1.02 ± 0.038 for the second.

First: GCAGTACGGG
Second: TTTAATTAGG
The switch fluorescence ratio of the first is higher: 1.42 ± 0.26 for the first, 1.03 ± 0.028 for the second.

Compared with TGGGGTCATG, CGTACGGCGG is higher in switch fluorescence ratio: 0.9887 ± 0.0096 for the first, 1.015 ± 0.0038 for the second.

CTGGGAAGGC and TCCTTTGGAT are within error of each other in switch fluorescence ratio: 1.13 ± 0.04 for the first, 1.05 ± 0.049 for the second.

First: GTTATCTAGC
Second: TCTGGAAGGC
The switch fluorescence ratio of the first is lower: 0.994 ± 0.017 for the first, 1.29 ± 0.25 for the second.

ACATGATTGG and TCGAGAGAGG are within error of each other in switch fluorescence ratio: 0.97 ± 0.037 for the first, 1.01 ± 0.049 for the second.

First: GACTGGGGTT
Second: TTGACGGTGT
The switch fluorescence ratio of the first is lower: 0.9891 ± 0.0059 for the first, 1.028 ± 0.0021 for the second.

First: TGGGAAATAC
Second: CCATTAATTT
The switch fluorescence ratio of the first is higher: 2.11 ± 0.12 for the first, 1.11 ± 0.17 for the second.

First: TATATTACAG
Second: AGGTTCAAAG
The switch fluorescence ratio of the first is higher: 1.05 ± 0.028 for the first, 0.959 ± 0.037 for the second.

TATTGTGGCT and ATTGGTTTTT are within error of each other in switch fluorescence ratio: 0.9785 ± 0.0061 for the first, 1.07 ± 0.19 for the second.

First: AGCGAGGGGG
Second: TTGACTTACT
The switch fluorescence ratio of the first is lower: 1.03 ± 0.032 for the first, 1.18 ± 0.085 for the second.

GTGTTATATT and TCGTTATTTG are the same in switch fluorescence ratio: 1.004 ± 0.0089 for the first, 1.004 ± 0.0078 for the second.

GTAAGGGGGA and CGTTTTGATA are within error of each other in switch fluorescence ratio: 0.984 ± 0.031 for the first, 1.01 ± 0.012 for the second.

AAGGTGCCTG and TCAAGAGGTT are within error of each other in switch fluorescence ratio: 1.02 ± 0.064 for the first, 1.001 ± 0.01 for the second.

Going from AAATGACGTT to CGTGTCTTGA, the switch fluorescence ratio rises from 0.9688 ± 0.0078 to 1.027 ± 0.0037.

First: TTTTTGCTTG
Second: TTAGGGACGC
The switch fluorescence ratio of the first is lower: 0.98 ± 0.029 for the first, 1.08 ± 0.025 for the second.

TCTCTATAGG and AGAGGAGGGG are within error of each other in switch fluorescence ratio: 0.9834 ± 0.0036 for the first, 1.01 ± 0.042 for the second.

GAAGGCTAAT and TGTGTGTATG are within error of each other in switch fluorescence ratio: 0.974 ± 0.022 for the first, 0.999 ± 0.036 for the second.

ATCAGGGGTA and CGTTTTAGAG are within error of each other in switch fluorescence ratio: 1.26 ± 0.34 for the first, 1.01 ± 0.016 for the second.

First: GGCCTCGCCT
Second: GGGATCCAGG
The switch fluorescence ratio of the first is lower: 0.98511 ± 9.3e-05 for the first, 1.23 ± 0.087 for the second.

CAGGTAGGTT and TGATGGGTAT are within error of each other in switch fluorescence ratio: 1.02 ± 0.068 for the first, 1 ± 0.028 for the second.

Compared with CAGGGGGTCA, GTAAAAGCTC is higher in switch fluorescence ratio: 0.982 ± 0.015 for the first, 1.02 ± 0.018 for the second.

CTGTTGTTG and GGGAGTGGCC are within error of each other in switch fluorescence ratio: 1 ± 0.01 for the first, 1.01 ± 0.032 for the second.

GAATTTGTTA and GGGGCACGGC are within error of each other in switch fluorescence ratio: 1.026 ± 0.0059 for the first, 1.01 ± 0.03 for the second.

CTCAGGATGT and ATGGAAGGGA are within error of each other in switch fluorescence ratio: 1.06 ± 0.026 for the first, 1.15 ± 0.21 for the second.

AGATTTTCTG and ATCAATGTCT are within error of each other in switch fluorescence ratio: 1.01 ± 0.025 for the first, 0.994 ± 0.005 for the second.

First: AGAGTTGTTA
Second: AATTAAGAGA
The switch fluorescence ratio of the first is lower: 0.996 ± 0.013 for the first, 1.04 ± 0.017 for the second.

AGGGGGGGG and GTCAGGAGGG are within error of each other in switch fluorescence ratio: 1.03 ± 0.085 for the first, 0.971 ± 0.026 for the second.

TTGGATCCGC and TTGAAGCGGA are within error of each other in switch fluorescence ratio: 1.32 ± 0.45 for the first, 1.03 ± 0.03 for the second.

TAATGGGGGT and AGCATGGGAG are within error of each other in switch fluorescence ratio: 0.994 ± 0.025 for the first, 0.991 ± 0.034 for the second.

CCCTGTGAAA and AATAGGGGCT are within error of each other in switch fluorescence ratio: 0.975 ± 0.028 for the first, 1.02 ± 0.054 for the second.

Going from TTAGGTCTTC to TTTATTTTCA, the switch fluorescence ratio falls from 1.02 ± 0.014 to 0.9924 ± 0.0046.

AGAGCGGCAA and CCGGTTAAGG are within error of each other in switch fluorescence ratio: 2.81 ± 2.4 for the first, 1 ± 0.05 for the second.

TGGGTTCCCG and ACAGCTGAGC are within error of each other in switch fluorescence ratio: 0.986 ± 0.013 for the first, 0.999 ± 0.0079 for the second.

Compared with AGTAACCTTG, GGTTAGGGTG is higher in switch fluorescence ratio: 1.02 ± 0.022 for the first, 1.047 ± 0.007 for the second.

Compared with TTAGACTTTT, TTCCGGCGCT is higher in switch fluorescence ratio: 1.03 ± 0.012 for the first, 3.42 ± 1.1 for the second.

AAGGGGTTGC and AGGGAGGTGC are within error of each other in switch fluorescence ratio: 1.03 ± 0.022 for the first, 1.02 ± 0.051 for the second.

TGTACGTGGC and TCGCTAACGG are within error of each other in switch fluorescence ratio: 1.08 ± 0.086 for the first, 1.07 ± 0.018 for the second.

CGCAATTCGA and TCATTCGCAG are within error of each other in switch fluorescence ratio: 3.57 ± 1.3 for the first, 3.73 ± 0.77 for the second.

GTACCCTCAA and AATGCCTTTT are within error of each other in switch fluorescence ratio: 1.03 ± 0.024 for the first, 1.04 ± 0.037 for the second.

AAGGGGATT and GTGTATATCG are within error of each other in switch fluorescence ratio: 1.01 ± 0.027 for the first, 0.991 ± 0.012 for the second.

GGTGGACACT and TTGCTAATGC are within error of each other in switch fluorescence ratio: 1.03 ± 0.024 for the first, 1.18 ± 0.23 for the second.

Going from TTATGCGGTG to TGCCCGCTGC, the switch fluorescence ratio rises from 1.0223 ± 0.00072 to 1.27 ± 0.017.

ATCTTGTGGC and GCGGGGGTG are within error of each other in switch fluorescence ratio: 0.972 ± 0.032 for the first, 1.01 ± 0.013 for the second.

Going from GCTATCTGCC to AGAAAGGGGT, the switch fluorescence ratio falls from 1.075 ± 0.01 to 1.01 ± 0.055.

TTGCGGGGTA and TGAATGATC are within error of each other in switch fluorescence ratio: 0.978 ± 0.013 for the first, 1 ± 0.043 for the second.

First: TGGATGATGG
Second: GCCCGGGGGG
The switch fluorescence ratio of the first is lower: 0.961 ± 0.019 for the first, 1.03 ± 0.0083 for the second.
